# According to article PMC10941009, “Structural basis for specific DNA sequence recognition by the transcription factor NFIL3” (The Journal of Biological Chemistry, 2024):
# Where a chain is given by its changes, count along the chain named. Numbers in names are those of the source.
# T1: NFIL3 bZIP (long) (human, UniProt Q16649 65-161)
# T1 sequence: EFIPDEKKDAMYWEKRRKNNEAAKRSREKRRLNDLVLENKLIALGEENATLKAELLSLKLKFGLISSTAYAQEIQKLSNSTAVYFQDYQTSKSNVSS
# T2: NFIL3 bZIP (short) (human, UniProt Q16649 65-136)
# T2 sequence: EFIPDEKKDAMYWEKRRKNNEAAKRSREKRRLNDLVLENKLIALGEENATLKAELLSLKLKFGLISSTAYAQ
# B1: TGATGTAA (dsDNA)
# DNA 1: GATGATGTAATC
# DNA 2: GATTACATCATC
# B2: NFIL3 bZIP domain (aa 65-161) (domain or fragment, human, UniProt Q16649 65-161, looked up)
# chain: T1 sequence
# notes: human NFIL3, bZIP domain, residues 65-161 (canonical bZIP helix aa 73-126 and an extra short helix aa 131-146); The methods of the size-exclusion run say only 'NFIL3 bZIP domain WT'; also called E4BP4; nuclear factor interleukin-3 regulated protein; source: E. coli BL21 (DE3), purified (Ni-NTA, TEV, anion exchange, gel filtration); not shown: His6, N-terminal, cleaved; SUMO, N-terminal, cleaved
# B3: NFIL3 bZIP domain N112D mutant (domain or fragment, human, UniProt Q16649 65-161, looked up)
# chain: T1 sequence with N48D
# notes: human NFIL3, bZIP domain, residues 65-161 with N112D; also called NFIL3 (N112D); source: E. coli BL21 (DE3), purified as the wild-type protein; not shown: His6, N-terminal, cleaved; SUMO, N-terminal, cleaved
# B4: mutated flanking DNA (dsDNA)
# DNA 1: CGTTACGTAATG
# DNA 2: CATTACGTAACG
# B5: TcACGTAA (dsDNA)
# DNA 1: CATCACGTAATG
# DNA 2: CATTACGTGATG
# B6: C/EBPζ bZIP domain (aa 88-162) (domain or fragment, human, UniProt P35638 88-162, looked up)
# chain: SSLAQEEEEEDQGRTRKRKQSGHSPARAGKQRMKEKEQENERKVAQLAEENERLKQEIERLTREVEATRRALIDR
# notes: human C/EBPζ, bZIP domain, residues 88-162; source: E. coli BL21 (DE3), purified (Ni-NTA, TEV, anion exchange, gel filtration); not shown: His6, N-terminal, cleaved; SUMO, N-terminal, cleaved
# B7: TTAtGTAA (dsDNA)
# DNA 1: CATTATGTAATG
# DNA 2: CATTACATAATG
# B8: TTgCGTAA (dsDNA)
# DNA 1: CATTGCGTAATG
# DNA 2: CATTACGCAATG
# B9: T/G mismatch TTAt (dsDNA)
# DNA 1: CATTATGTAATG
# DNA 2: CATTACGTAATG
# modifications: T/G mismatch at position 6 of strand 1
# B10: cTACGTAA (dsDNA)
# DNA 1: CACTACGTAATG
# DNA 2: CATTACGTAGTG
# B11: ccgCGTAA (dsDNA)
# DNA 1: CACCGCGTAATG
# DNA 2: CATTACGCGGTG
# B12: TTACGTAA (dsDNA)
# DNA 1: CATTACGTAATG
# DNA 2: CATTACGTAATG
# B13: TTGCGCAA (dsDNA)
# DNA 1: CATTGCGCAATG
# DNA 2: CATTGCGCAATG
# B14: TTAmCGTAA (dsDNA)
# DNA 1: CATTACGTAATG
# DNA 2: CATTACGTAATG
# modifications: 5-methyl-C at position 6 of the printed strand; second strand not printed (palindrome, methylation of it not stated)
# B15: TTAaGTAA (dsDNA)
# DNA 1: CATTAAGTAATG
# DNA 2: CATTACTTAATG
# Experiments:
# C/EBPζ bZIP = C/EBPζ bZIP (human, UniProt P35638 88-162); experiment: ITC; ITC: 20 mM Tris pH 7.5, 150 mM NaCl, 25 °C; EMSA: same buffer, 4 °C, 6% native gel in 0.5x TBE; conditions: protein: recombinant; tags: His6-SUMO removed by TEV; chain copies: 2; blunt
# [1] = molecular target: the molecule itself; experiment: SEC; Superdex 200 10/300 GL, 20 mM Tris pH 7.5, 150 mM NaCl; NFIL3 bZIP domain WT 2 mg/ml apo and NFIL3 mutants, against protein standard
# NFIL3 bZIP (long) = molecular target: T1, NFIL3 bZIP (long); experiment: ITC; ITC: 20 mM Tris pH 7.5, 150 mM NaCl, 25 °C; EMSA: same buffer, 4 °C, 6% native gel in 0.5x TBE; conditions: protein: recombinant, tags: His6-SUMO removed by TEV, chain copies: 2, blunt
# [2] = molecular target: the molecule itself; experiment: SEC; gel filtration chromatography of the recombinant C/EBPζ bZIP domain; conditions not told for this protein
# C/EBPα bZIP = C/EBPα bZIP (human, UniProt P49715 281-340); experiment: ITC; ITC: 20 mM Tris pH 7.5, 150 mM NaCl, 25 °C; EMSA: same buffer, 4 °C, 6% native gel in 0.5x TBE; conditions: protein: recombinant; tags: His6-SUMO removed by TEV; chain copies: 2; blunt
# Chain of C/EBPα bZIP (P49715 281-340): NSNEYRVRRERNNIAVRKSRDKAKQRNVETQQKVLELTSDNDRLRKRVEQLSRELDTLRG
# NFIL3 bZIP (short) = molecular target: T2, NFIL3 bZIP (short); experiment: as above; conditions: protein: recombinant; tags: His6-SUMO removed by TEV; chain copies: 2; blunt
# C/EBPβ bZIP = C/EBPβ bZIP (human, UniProt P17676 259-336); experiment: as above; conditions: protein: recombinant; tags: His6-SUMO removed by TEV; chain copies: 2; blunt
# Chain of C/EBPβ bZIP (P17676 259-336): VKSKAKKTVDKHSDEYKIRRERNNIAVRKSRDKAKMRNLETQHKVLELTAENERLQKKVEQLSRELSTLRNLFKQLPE
binder,measurement,setting,value
B1,binding result,C/EBPζ bZIP,no binding
B2,stoichiometry N,[1],2
B3,stoichiometry N,[1],2
B4,Kd,NFIL3 bZIP (long),67 ± 14 nM
B5,Kd,NFIL3 bZIP (long),1660 ± 110 nM
B6,stoichiometry N,[2],2
B7,Kd,NFIL3 bZIP (long),520 ± 30 nM
B8,Kd,NFIL3 bZIP (long),180 ± 20 nM
B9,Kd,NFIL3 bZIP (long); one T/G mismatch,290 ± 30 nM
B10,Kd,NFIL3 bZIP (long),2430 ± 150 nM
B11,Kd,NFIL3 bZIP (long),6890 ± 340 nM
B12,Kd,C/EBPα bZIP,350 ± 30 nM
same,Kd,NFIL3 bZIP (short),52 ± 17 nM
same,Kd,NFIL3 bZIP (long),42 ± 7 nM
same,Kd,C/EBPβ bZIP,18 ± 3 nM
same,binding result,C/EBPζ bZIP,no binding
B13,Kd,C/EBPα bZIP,480 ± 70 nM
same,Kd,NFIL3 bZIP (long),810 ± 70 nM
same,Kd,C/EBPβ bZIP,69 ± 9 nM
same,binding result,C/EBPζ bZIP,no binding
B14,Kd,NFIL3 bZIP (long),590 ± 89 nM
B15,Kd,NFIL3 bZIP (long),120 ± 10 nM
